Measurements published in article doi:10.1101/122184 (bioRxiv, 2017).

Target: the molecule itself
Test: crystal structure

B1: BAR (bialaphos resistance; phosphinothricin acetyltransferase) from Streptomyces hygroscopicus (enzyme, UniProt P16426 1-183, looked up)
chain: MSPERRPADIRRATEADMPAVCTIVNHYIETSTVNFRTEPQEPQEWTDDLVRLRERYPWLVAEVDGEVAGIAYAGPWKARNAYDWTAESTVYVSPRHQRTGLGSTLYTHLLKSLEAQGFKSVVAVIGLPNDPSVRMHEALGYAPRGMLRAAGFKHGNWHDVGFWQLDFSLPVPPRPVLPVTEI
stoichiometry N: 2
